{
  "source": "patent US20260258124A1",
  "about": "(CIMEIO THERAPEUTICS, published 2026)",
  "binders": {"B1": {"name": "Piz Zupo (antibody, V domains shown)", "VH": "QVQLVQSGAEVKKPGASVKVSCKASGYTFTSYNMHWVRQAPGQGLEWMGVIYSGNGDTSYNQKFKGRVTMTTDTSTSTAYMELRSLTSDDTAVYYCARERDTRFGNWGQGTLVTVSA", "VL": "EIVLTQSPSSLSASVGDRVTITCRASESVDIYGQSFMHWYQQKPGKAPKLLIYLASNLESGVPSRFSGSGSGTDFTLTISSLQPEDFATYYCQQNKEEPYTFGQGTKLEIKR", "notes": "IgG; also called VH1/VL1.25"}, "B2": {"name": "Eiger (antibody, V domains shown)", "VH": "QVQLVQSGAEVKKPGASVKVSCKASGYTFTSYNMHWVRQAPGQGLEWMGVIYSGNGDTSYNQKFKGRVTMTTDTSTSTAYMELRSLTSDDTAVYYCARERDTRFGNWGQGTLVTVSA", "VL": "EIVLTQSPSSLSASVGDRVTITCRASESVDIYGSSFMHWYQQKPGKAPKLLIYLASNLESGVPSRFSGSGSGTDFTLTISSLQPEDFATYYCQQNKEEPYTFGQGTKLEIKR", "notes": "IgG; also called VH1/VL1.26"}, "B3": {"name": "Piz Roseg (antibody, V domains shown)", "VH": "QVQLVQSGAEVKKPGASVKVSCKASGYTFTSYNMHWVRQAPGQGLEWMGVIYSGNGDTSYNQKFKGRVTMTTDTSTSTAYMELRSLTSDDTAVYYCARERDTRFGNWGQGTLVTVSA", "VL": "EIVLTQSPSSLSASVGDRVTITCRASESVDIYGSSFMHWYQQKPGKAPKLLIYKASNLESGVPSRFSGSGSGTDFTLTISSLQPEDFATYYCQQNKEEPYTFGQGTKLEIKR", "notes": "IgG; also called VH1/VL1.28"}, "B4": {"name": "Bellavista (antibody, V domains shown)", "VH": "QVQLVQSGAEVKKPGASVKVSCKASGYTFTSYNMHWVRQAPGQGLEWMGVIYSGQGDTSYNQKFKGRVTMTTDTSTSTAYMELRSLTSDDTAVYYCARERDTRFGNWGQGTLVTVSA", "VL": "EIVLTQSPSSLSASVGDRVTITCRASESVDIYGESFMHWYQQKPGKAPKLLIYLASNLESGVPSRFSGSGSGTDFTLTISSLQPEDFATYYCQQNREEPYTFGQGTKLEIKR", "notes": "IgG; also called VH1.4/VL1.29"}, "B5": {"name": "Matterhorn (antibody, V domains shown)", "VH": "QVQLVQSGAEVKKPGASVKVSCKASGYTFTSYNMHWVRQAPGQGLEWMGVIYSGNGDTSYNQKFKGRVTMTTDTSTSTAYMELRSLTSDDTAVYYCARERDTRFGNWGQGTLVTVSA", "VL": "EIVLTQSPSSLSASVGDRVTITCRASESVDIYGSSFMHWYQQKPGKAPKLLIYLASNLESGVPSRFSGSGSGTDFTLTISSLQPEDFATYYCQQNNEDPYTFGQGTKLEIKR", "notes": "IgG; also called VH1/VL1.4; VH1/LC1.4"}, "B6": {"name": "Piz Argient (antibody, V domains shown)", "VH": "QVQLVQSGAEVKKPGASVKVSCKASGYTFTSYNMHWVRQAPGQGLEWMGVIYSGNGDTSYNQKFKGRVTMTTDTSTSTAYMELRSLTSDDTAVYYCARERDTRFGNWGQGTLVTVSA", "VL": "EIVLTQSPSSLSASVGDRVTITCRASESVDIYGHSFMHWYQQKPGKAPKLLIYLASNLESGVPSRFSGSGSGTDFTLTISSLQPEDFATYYCQQNKEEPYTFGQGTKLEIKR", "notes": "IgG; also called VH1/VL1.27"}},
  "key": {"[1]": {"target": "T1, CD117 on wild-type cells (TF-1 cells, HSPCs, HSCs) (human, UniProt P10721 26-976)", "T1 sequence (P10721 26-976 limits assumed)": "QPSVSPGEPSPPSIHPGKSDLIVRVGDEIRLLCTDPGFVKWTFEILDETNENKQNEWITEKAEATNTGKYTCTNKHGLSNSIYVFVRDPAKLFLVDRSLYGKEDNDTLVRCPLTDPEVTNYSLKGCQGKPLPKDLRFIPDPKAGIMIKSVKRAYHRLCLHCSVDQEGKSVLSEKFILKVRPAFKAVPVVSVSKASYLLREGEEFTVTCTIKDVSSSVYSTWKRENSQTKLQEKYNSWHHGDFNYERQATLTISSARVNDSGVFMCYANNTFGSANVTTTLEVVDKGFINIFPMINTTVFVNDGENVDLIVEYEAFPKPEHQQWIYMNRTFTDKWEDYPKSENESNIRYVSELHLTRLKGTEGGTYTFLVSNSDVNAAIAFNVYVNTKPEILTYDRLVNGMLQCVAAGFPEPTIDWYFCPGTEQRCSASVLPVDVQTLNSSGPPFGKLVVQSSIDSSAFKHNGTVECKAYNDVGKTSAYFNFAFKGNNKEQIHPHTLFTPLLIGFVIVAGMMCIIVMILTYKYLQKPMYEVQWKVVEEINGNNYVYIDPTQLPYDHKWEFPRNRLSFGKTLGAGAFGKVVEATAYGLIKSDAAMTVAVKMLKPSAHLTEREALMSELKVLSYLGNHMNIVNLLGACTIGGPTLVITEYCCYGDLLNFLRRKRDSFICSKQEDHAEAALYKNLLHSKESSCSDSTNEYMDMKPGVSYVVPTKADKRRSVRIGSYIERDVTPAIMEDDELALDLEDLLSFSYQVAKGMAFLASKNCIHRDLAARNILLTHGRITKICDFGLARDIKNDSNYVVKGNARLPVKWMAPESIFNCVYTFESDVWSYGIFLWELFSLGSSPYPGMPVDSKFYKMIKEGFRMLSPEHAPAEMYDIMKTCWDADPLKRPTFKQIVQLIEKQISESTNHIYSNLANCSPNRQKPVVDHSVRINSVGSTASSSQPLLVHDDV", "test": "cell-based or functional assay"}, "[2]": {"target": "T1, CD117 on wild-type cells (TF-1 cells, …)", "test": "cell-based or functional assay", "remark": "listed apart in the source"}, "[3]": {"target": "T2, human recombinant CD117 (c-Kit) from Sino Biological (Catalog No. 11996-H08H) (human, UniProt P10721 26-524)", "T2 construct": "also called soluble antigen", "T2 sequence (P10721 26-524 limits assumed)": "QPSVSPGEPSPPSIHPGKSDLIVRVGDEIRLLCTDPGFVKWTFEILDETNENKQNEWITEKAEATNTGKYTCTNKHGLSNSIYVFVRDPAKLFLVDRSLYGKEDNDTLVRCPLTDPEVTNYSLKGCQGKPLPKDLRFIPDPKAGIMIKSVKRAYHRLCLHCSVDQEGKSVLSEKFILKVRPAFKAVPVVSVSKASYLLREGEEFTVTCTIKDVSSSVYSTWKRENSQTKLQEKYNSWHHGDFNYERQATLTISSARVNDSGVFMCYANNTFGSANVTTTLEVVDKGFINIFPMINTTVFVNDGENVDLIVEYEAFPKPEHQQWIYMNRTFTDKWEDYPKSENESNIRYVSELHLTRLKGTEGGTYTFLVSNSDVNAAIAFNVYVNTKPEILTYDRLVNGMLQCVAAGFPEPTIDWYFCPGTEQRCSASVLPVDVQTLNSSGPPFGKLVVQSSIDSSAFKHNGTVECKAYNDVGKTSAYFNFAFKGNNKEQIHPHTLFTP", "test": "BLI Octet, set-up as in Example 2", "method": "In the main experiment kinetic assays were performed by first capturing IgG using anti-human Fc biosensors. The mAb capture biosensors were then submerged in wells containing different concentrations of antigen (association stage) followed by a dissociation step in running buffer. To allow for double reference correction, IgG-captured sensors were dipped into wells containing only buffer and blank sensors were also dipped into wells containing the antigen. This referencing provided a means of compensating for both the natural dissociation of the capture IgG and non-specific binding of the antigen to the sensor surface. Steps were performed at 25° C. at a constant shaking of 1000 rpm. New sensors were used for each sample. Dissociation rate constants (Kd) were calculated using the ForteBio Data Analysis software. All consumables used were those recommended by ForteBio.\nAll samples were diluted in freshly prepared running buffer. Antibody variants were immobilized onto the surface of a series of biosensors using the capture methods described. Antigen was passed over the surface to generate a binding response. Binding data for the IgG:antigen interactions were collected at 25° C. on the biosensors. A dilution series of the antigen was used in the association step, in order to fit results globally and get the best values for ka, kd, and KD. The response data for the binding of antigen to the surface immobilized IgG were fitted to a 1:1 binding model. HC0 LC0 refers to murine SR-1."}, "[4]": {"target": "T1, CD117 on wild-type cells (TF-1 cells, …)", "test": "flow cytometry on TF-1 wild-type cells, Fc receptors blocked, goat anti-human IgG Alexa Fluor 488 as secondary antibody", "method": "Binding of the antibodies of the present disclosure to CD117 on TF-1 cells was measured. TF-1 wild-type cells were seeded at a concentration of 100,000 cells/well. A Fc receptor blocking was performed using 25 μL TruStain FcX (BioLegend) for 15 min. Next cells are treated with various concentrations of the antibodies to be tested (0.0001-5 μg/ml). After additional 30 min cells were washed, then a secondary antibody was added to the cells (IgG (H+L) Cross-Adsorbed Goat anti-Human, Alexa Fluor® 488). After 30 min and two additional wash steps a live dead staining via 7AAD (7-aminoactinomycin D) was performed using 0.5 μg/mL 7AAD for 10 min before analyzing cells in a flow cytometer."}},
  "data": [
    {"binder": "B1", "values": [
      {"measurement": "IC50, inhibition of SCF-dependent proliferation of TF-1 cells (CellTiter-Glo), Average", "setting": "[1]", "result": "> 0.5", "unit": "µg/mL"},
      {"measurement": "IC50, inhibition of SCF-dependent proliferation of TF-1 cells (CellTiter-Glo), Experiment #1", "setting": "[1]", "result": "> 0.5", "unit": "µg/mL"},
      {"measurement": "IC50, inhibition of SCF-dependent proliferation of TF-1 cells (CellTiter-Glo), Experiment #2", "setting": "[1]", "result": "> 0.5", "unit": "µg/mL"},
      {"measurement": "IC50, inhibition of SCF-dependent proliferation of CD34-positive HSPCs (CellTiter-Glo)", "setting": "[2]", "result": 0.114, "unit": "µg/mL"},
      {"measurement": "Kd", "setting": "[3]", "result": 1.1, "unit": "nM"}
    ]},
    {"binder": "B2", "values": [
      {"measurement": "IC50, inhibition of SCF-dependent proliferation of TF-1 cells (CellTiter-Glo), Average", "setting": "[1]", "result": "> 0.5", "unit": "µg/mL"},
      {"measurement": "IC50, inhibition of SCF-dependent proliferation of TF-1 cells (CellTiter-Glo), Experiment #1", "setting": "[1]", "result": "> 0.5", "unit": "µg/mL"},
      {"measurement": "IC50, inhibition of SCF-dependent proliferation of TF-1 cells (CellTiter-Glo), Experiment #2", "setting": "[1]", "result": "> 0.5", "unit": "µg/mL"},
      {"measurement": "IC50, inhibition of SCF-dependent proliferation of CD34-positive HSPCs (CellTiter-Glo)", "setting": "[2]", "result": 0.594, "unit": "µg/mL"},
      {"measurement": "Kd", "setting": "[3]", "result": 1.6, "unit": "nM"}
    ]},
    {"binder": "B3", "values": [
      {"measurement": "IC50, inhibition of SCF-dependent proliferation of TF-1 cells (CellTiter-Glo), Average", "setting": "[1]", "result": "> 0.5", "unit": "µg/mL"},
      {"measurement": "IC50, inhibition of SCF-dependent proliferation of TF-1 cells (CellTiter-Glo), Experiment #1", "setting": "[1]", "result": "> 0.5", "unit": "µg/mL"},
      {"measurement": "IC50, inhibition of SCF-dependent proliferation of TF-1 cells (CellTiter-Glo), Experiment #2", "setting": "[1]", "result": "> 0.5", "unit": "µg/mL"},
      {"measurement": "IC50, inhibition of SCF-dependent proliferation of CD34-positive HSPCs (CellTiter-Glo)", "setting": "[2]", "result": "> 10", "unit": "µg/mL"},
      {"measurement": "Kd", "setting": "[3]", "result": 8.3, "unit": "nM"},
      {"measurement": "EC50 (read off the curve)", "setting": "[4]", "result": "~0.2", "unit": "µg/mL"}
    ]},
    {"binder": "B4", "values": [
      {"measurement": "IC50, inhibition of SCF-dependent proliferation of TF-1 cells (CellTiter-Glo), Average", "setting": "[1]", "result": 0.157, "unit": "µg/mL"},
      {"measurement": "IC50, inhibition of SCF-dependent proliferation of TF-1 cells (CellTiter-Glo), Experiment #1", "setting": "[1]", "result": 0.103, "unit": "µg/mL"},
      {"measurement": "IC50, inhibition of SCF-dependent proliferation of TF-1 cells (CellTiter-Glo), Experiment #2", "setting": "[1]", "result": 0.212, "unit": "µg/mL"},
      {"measurement": "IC50, inhibition of SCF-dependent proliferation of CD34-positive HSPCs (CellTiter-Glo)", "setting": "[2]", "result": 0.096, "unit": "µg/mL"},
      {"measurement": "Kd", "setting": "[3]", "result": 1.3, "unit": "nM"}
    ]},
    {"binder": "B5", "values": [
      {"measurement": "IC50, inhibition of SCF-dependent proliferation of TF-1 cells (CellTiter-Glo), Average", "setting": "[1]", "result": 0.116, "unit": "µg/mL"},
      {"measurement": "IC50, inhibition of SCF-dependent proliferation of TF-1 cells (CellTiter-Glo), Experiment #1", "setting": "[1]", "result": 0.0648, "unit": "µg/mL"},
      {"measurement": "IC50, inhibition of SCF-dependent proliferation of TF-1 cells (CellTiter-Glo), Experiment #2", "setting": "[1]", "result": 0.168, "unit": "µg/mL"},
      {"measurement": "IC50, inhibition of SCF-dependent proliferation of CD34-positive HSPCs (CellTiter-Glo)", "setting": "[2]", "result": 0.0716, "unit": "µg/mL"},
      {"measurement": "Kd", "setting": "[3]", "result": 0.5, "unit": "nM"}
    ]},
    {"binder": "B6", "values": [
      {"measurement": "IC50, inhibition of SCF-dependent proliferation of TF-1 cells (CellTiter-Glo), Average", "setting": "[1]", "result": "> 0.5", "unit": "µg/mL"},
      {"measurement": "IC50, inhibition of SCF-dependent proliferation of TF-1 cells (CellTiter-Glo), Experiment #1", "setting": "[1]", "result": "> 0.5", "unit": "µg/mL"},
      {"measurement": "IC50, inhibition of SCF-dependent proliferation of TF-1 cells (CellTiter-Glo), Experiment #2", "setting": "[1]", "result": "> 0.5", "unit": "µg/mL"},
      {"measurement": "IC50, inhibition of SCF-dependent proliferation of CD34-positive HSPCs (CellTiter-Glo)", "setting": "[2]", "result": "> 10", "unit": "µg/mL"},
      {"measurement": "Kd", "setting": "[3]", "result": 3.3, "unit": "nM"},
      {"measurement": "EC50 (read off the curve)", "setting": "[4]", "result": "~0.1", "unit": "µg/mL"}
    ]}
  ]
}
